Data reported in paper PMC4853038.

Key:
[1] = Western blot of 293T-EmGFP lysates; details: glycan lost; control: wild type
[2] = co-transfection of WT and mutant, 293T-EmGFP syncytia; details: glycan lost; control: WT syncytin-2 plus empty vector
[3] = syncytia formation in 293T-EmGFP cells, 36 h; details: glycan lost; control: wild type

For syncytin-2: N133Q, the expression_or_secretion [1] was “no change” and the “other: fusogenic activity of co-expressed wild type” value [2] was “decreases”.

For syncytin-2: N146Q, the “other: fusogenic activity, other: fusion score (−, +, ++)” value (“other: fusogenic activity, other” below) [3] was “no change” and the expression_or_secretion [1] was “no change”.

With syncytin-2: N177Q the “other: fusogenic activity, other” value [3] was “no change” and the expression_or_secretion [1] was “no change”.

In the case of syncytin-2: N220Q, the “other: fusogenic activity, other” value [3] was “no change” and the expression_or_secretion [1] was “no change”.

For syncytin-2: N241Q, the “other: fusogenic activity, other” value [3] was “no change” and the expression_or_secretion [1] was “no change”.

For syncytin-2: N247Q, the “other: fusogenic activity, other” value [3] was “no change” and the expression_or_secretion [1] was “no change”.

For syncytin-2: N332Q, the “other: fusogenic activity, other” value [3] was “increases” and the expression_or_secretion [1] was “no change”.

With syncytin-2: N443Q the expression_or_secretion [1] was “no change” and the “other: fusogenic activity of co-expressed wild type” value [2] was “decreases”.
